Measured values taken from the DeepSol protein solubility set.

Assay: soluble on expression in E. coli; label from the status in PepcDB or PDB records

Sequence | soluble on expression in E. coli
MAITAQMVKELREKTGAGMMDCKKALTETNGDMEKAIDFLREKGIAKAAKKADRIAAEGLTFIETNGNDGLILELNSETDFVAKNEGFQTLIKELAAHLLANKPANVEEAMAQTMENGKKVEEHINEAIAKIGEKLTLRRFEIVSKTDADAFGAYLHMGGRIGVLTVLEGSTDEAAAKDVAMHIAAVNPKYIDRDAVTAEEVEHERQVLTQQALNEGKPEKIVAKMVEGRLGKFFEEICLLDQAFVKNPDMKVRQFVESKGGTLKGFVRYAVGEGIEKREDNFAEEVMNQVKGSN | not soluble
MAITIQNHELQVTLKALGATMTSITDSQGVEYLWQGDATYWGGQAPILFPICGSVRNDCVIYRPAQAPHFTGIIPRHGFVRHKTFDYDYISDSSVRFTIKSSKEMLINYPYRFSLEITYTLRNKSIAITYIVKNLESEKNMPYAIGAHPGFNCPLFEKEVFSDYYLEFEQFETCTIPESFPDTGLLDLQARHPFLENQKQLSLNHALFEKDAITLDQLRSKTVYLKSRNHAKGIQLDFDDFENLILWTSNNGGPFLALEPWSSLSTSIEESDILEDKQNIVRLNPKQSKQHSIRITILLEHHHHHH | soluble
MAIVSFKHKGLKLFYTTGSTKAIRPDHVKKLRVILTALTSATCPEMLKAPAFKMHPLKGELTGYYSIWVNGNWRVTFRFIGTDVELVDYQDYH | not soluble
MAKAQLSQNGEARAWQRMLSGRRLDLLNPSPFDIEIEDIAHGLARVARWNGQTQGEYAYSVAQHSLLVEQIFQKLFPQSQNNECLCALLHDAPEYVIGDIISPFKAVIGKQYELIEKRIQDAIHMRFSLPVAPSQKLLKKIKQADRIAAFHESIILAGFNTEEALRYFGHPNNISPEGLNLQPCSTTKIENAFLKRFHDLDVERLH | not soluble
MAKKKTKFTCQECGYQSPKYMGKCPGCGQWNSLVEEMEPVVSSRRLNYANAIQTEVTKPRRLTEVETKSEARIETKFQEFNRVLGGGIVDGSLVLIGGDPGIGKSTLLLQISSQLADASYDVLYISGEESAKQIKLRADRLHVNGSNLFVVSETDLQRIAAHIEEMNPAFVVIDSIQTIHLPEVTSAPGSVAQVRECTAELMKLAKTKGIPIFIVGHVTKEGAIAGPRMLEHMVDAVLYFEGDRHHTYRILRAVKNRFGSTNEMGIFEMKELGLAEVLNPSEIFLEERPVGVAGSTVVASMEGTRPVLVEIQALISPTSFGNPRRMATGIDHNRVSLIMAVLEKRTGLLLQNQDAYLKVAGGLKLDEPAIDLAVALSIASSFRDKSTAPTDAVIGEVGLTGEIRRVSRIEQRVQEAAKLGFQRAIIPRKNLGGWTIPEGIEVVGVSNLGEALRLTLGG | not soluble
MAKKNNKTKIQKPEAALQTDVAQITATGRVIAEHPSNFITPQKMRALFEDAESGDIRAQHELFADIEERDSDIAANMGTRKRALLTLNWRVAPPRNATPEEEKLSDQAYEMMDSLPTLEDLIMDLMDAVGHGFSALEVEWVFSDGLYLPRNFIHRPQSWFKWDKDNGLLLRTRENPEGEALWPLGWVVHTQKSRSVQQARNGLFRTLSWLYMFKHYAVHDFAEFLELYGMPIRIGKYGAGATKEEKNTLLRAVAEIGHNAAGIMPEGMEIELHNAANGTTATSNPFLQMADWCEKSAARLILGQTLTSGADGKSSTNALGNIHNEVRRDLLVSDAKQVAQTITSQIIGPFLQINYPHADPNRVPKFEFDTREPKDIAVFADAIPKLVDVGVQIPESWVRDKLVIPDVQEGEAVLVRQVPDNPVNRTALAALSAHTVPSKATGRHQEILDGALDDALVEPDFNSQLNPMVRQAVAALNACNSYEEADAALNALYPNLDNAKLRTYMQQALFISDILGQDHARA | not soluble
MAKKTKQRRPMGFPPGPPGLPFIGNIYSLAASSELPHVYMRKQSQVYGEIFSLDLGGISTVVLNGYDVVKECLVHQSEIFADRPCLPLFMKMTKMGGLLNSRYGRGWVDHRRLAVNSFRYFGYGQKSFESKILEETKFFNDAIETYKGRPFDFKQLITNAVSNITNLIIFGERFTYEDTDFQHMIELFSENVELAASASVFLYNAFPWIGILPFGKHQQLFRNAAVVYDFLSRLIEKASVNRKPQLPQHFVDAYLDEMDQGKNDPSSTFSKENLIFSVGELIIAGTETTTNVLRWAILFMALYPNIQGQVQKEIDLIMGPNGKPSWDDKCKMPYTEAVLHEVLRFCNIVPLGIFHATSEDAVVRGYSIPKGTTVITNLYSVHFDEKYWRDPEVFHPERFLDSSGYFAKKEALVPFSLGRRHCLGEHLARMEMFLFFTALLQRFHLHFPHELVPDLKPRLGMTLQPQPYLICAERRHHHHHH | soluble
MAKLDFHIVKRIREQIANGGTRVALKHKVAGAWQGITWEQFGQQVDTLSLALLAQGLGVQDKIGIFSNNMPQWTIADFAALQLRGVTVPIYPTNTAAQSAYIIDNADVKVLFVGEQPQFDAAVSIFEQCEQLELIVAMSDDIELGDHDFAISWKDFVAKGDTSHQAELDERLEQAKVDDLLTLIYTSGTTGQPKGVMLDYGNIAAQLEGHDQRLSLSQDDVSLCFLPLSHVFERAWTFYVLYKGATNCYLQDTMQVRDALSEVRPTVMCAVPRFYEKIFSAIHEKVSRAPIHRKIMFTWAVNMGAKMALCHQEKRKPSMMLRKAHA | not soluble
MAKQELSAREAVTEAKCYLNNAKEILREKGAKTEGYYRDSKYVKMAGDTAYSGVLFVLDHYFGEKAKGRKDVDWYRINLSKEDRKMLDSFTAVYEQLHL | not soluble
MAKRIKNTTPKQDGFRMPGEFEKQKQIWMLWPWRNDNWRLGAKPAQKAFLEVAEAISEFEPVSLCVPPLQYENALARVSELGSHNIRIIEMTNDDAWIRDCGPTFLVNDKGDLRAVDWEFNAWGGLVDGLYFPWDQDALVARKVCEIEGVDSYKTKDFVLEGGSIHVDGEGTVLVTEMCLLHPSRNPHLTKEDIEDKLKDYLNCVKVLWVKDGIDPYETNGHIDDVACFIRPGEVACIYTDDKEHPFYQEAKAAYDFLSQQTDAKGRPLKVHKMCVTKEPCYLQEAATIDYVEGSIPREEGEMAIASYLNFLIVNGGIILPQYGDENDQLAKQQVQEMFPDRKVVGVRTEEIAYGGGNIHCITQQQPATLEHHHHHH | soluble
MAKRVFIGATGQNCGKTTMSVSLMHLARQKYDRVGFIKPIGPKIEGYNGLTVDMDAILMARTFGLEEDLPLMNPVSLHKNFTRDFLSGKLDCNVLKTKILEAFEILDKKYDFLIIEGAGHGGVGSVIGLSNACVAHTLNAPVIIVTDSGIGSSIDAVHLNLALYEKEDADVRMLLVNKLRADKRESILSFLGKGFPGRPLKISGGFNYSPILANPTLSHIGKLLNLPVHGDPDGQSRIIHHIHLGAASAQRVVDALQESTLIVITSSRDELIVTLSSLYHIPAFREKIVGLVIAGHIPASEISQQILDDSNIPYIRVHDSTANVFTTLMEDVAKITAEDQEKLNWIRANAENEIDFEAIDALLLEHHHHHH | not soluble
MAKRVVSVSLGSSRRDAAAEVELLGERVLLERRGTDGDFQRALCLIQELDGKVDAIGLGGIDLYLFAGGRRYAIRDALRLKEAAKKTPVVDGSGLKHTLERRAVRELASLIDWRKTKVLLPSAVDRFGLAEALDEAGARVLYGDFIFALGLPIPLYSLSFLQKLAFLLLPLFTRLPFSVLYPTGKKQEEVREDWRARYYAWADVVAGDWHYVRRHMPKDMRGKTVITNTTTEEDVAFLRERGVRRLVTTTPRLGGRSFGTNVMEAMLVALAGRELGEADYLRYIDQIGLKPQVLELKGQA | soluble
MAKTLKTLYQCTECGGTSPKWQGKCPHCGEWNTLQESLAAPEPKNARFQSWAADTSTVQSLSAVTATEVPRNPTGMGELDRVLGGGLVDGAVILLGGDPGIGKSTLLLQTIAKMAQSRKVLYVSGEESAQQVALRAQRLELPTDGVNLLAEIRMEAIQAALKQHQPEVVVIDSIQTMYSDQITSAPGSVSQVRECAAQLTRMAKQMGIAMILVGHVTKDGAIAGPRVLEHMVDTVLYFEGDQHSNYRMIRAIKNRFGAANELGVFAMTENGLKGVSNPSAIFLASYRDDTPGSCVLVTQEGSRPLLVEIQALVDDAHGFTPKRLTVGLEQNRLAMLLAVLNRHGGIACFDQDVFLNAVGGV | not soluble
